Results reported in article PMC8511952.

Experiments:
[1] = test system: MBP-ERSRC WT (Homo sapiens); experiment: fluorescence anisotropy; settings: unmodified in vitro transcript; FA: 5 nM labeled tRNA, 25 mM Tris-HCl pH 8, 50 mM NaCl, 1 mM MgCl2, room temperature, 30 min
[2] = test system: MBP-ERS2.5W WT (Homo sapiens); experiment: fluorescence anisotropy; settings: unmodified in vitro transcript; FA: 5 nM labeled tRNA, 25 mM Tris-HCl pH 8, 50 mM NaCl, 1 mM MgCl2, room temperature, 30 min

Question: What does the source list for tRNAGlu(TTC)?
Answer: Kd [1]: 331 nM; Kd [2]: 83.7 nM
